Results taken from US20180291083A1 (IMMATICS BIOTECHNOLOGIES, published 2018).

Target: T1, human recombinant HLA-B*08:01 with b2m (human)
T1 construct: Peptide-receptive MHC class I used in the pMHC stability assay by ImmunAware; also called MHC heavy chain and b2m
Test: pMHC stability assay at 37 C, mean half-life of b2m on heavy chain, grade (T1/2 >2 h = +; >4 h = ++; >6 h = +++; >10 h = ++++)
Procedure: The peptide-MHC stability for HLA-B*08:01 peptides was performed by ImmunAware (Copenhagen, Denmark). The data were obtained using a proximity based, homogenous, real-time assay to measure the dissociation of peptides from HLA class I molecules. First human recombinant HLA-B*08:01 and b2m were expressed in E. coli and purified in a series of liquid chromatography based steps (Ferre et al., 2003; Ostergaard et al., 2001). Afterwards, the stability of a peptide-MHC complex (pMHC) can be determined by measuring the amount of b2m associated with the MHC heavy chain over time at 37° C. (Harndahl et al., 2012). The stability of each pMHC, expressed as the half life of b2m associated with the respective heavy chain, was calculated by fitting the data to a one-phase dissociation equation.

Binder | mean half-life (T1/2) of peptide-MHC complex
TLKIRAEVL (synthetic peptide; also called RALGPS2 peptide) [peptide TLKIRAEVL (SEQ ID NO: 116)] | 6 to 10 h
DLRTKEVVF (synthetic peptide; also called SIPA1L3 peptide) [peptide DLRTKEVVF (SEQ ID NO: 119)] | 4 to 6 h
FEKEKKESL (synthetic peptide; also called SESN3 peptide) [peptide FEKEKKESL (SEQ ID NO: 118)] | 6 to 10 h
HNALRILTF (synthetic peptide; also called NUP210 peptide) [peptide HNALRILTF (SEQ ID NO: 114)] | 4 to 6 h
VPPKKHLL (synthetic peptide; also called TRRAP peptide) [peptide VPPKKHLL (SEQ ID NO: 120)] | 2 to 4 h

Now from value to binder:

mean half-life (T1/2) of peptide-MHC complex | Binder
4 to 6 h | ELYQRIYAF (synthetic peptide; also called PIK3R6 peptide) [peptide ELYQRIYAF (SEQ ID NO: 115)]
4 to 6 h | YIKTAKKL (synthetic peptide; also called RALGPS2 peptide) [peptide YIKTAKKL (SEQ ID NO: 117)]
2 to 4 h | RPKKVNTL (synthetic peptide; also called ZBTB24 peptide) [peptide RPKKVNTL (SEQ ID NO: 121)]
